The target of test [1] is T1, GST-SH3 of Amphiphysin II (UniProt O00499 520-593).
T1 construct: Amphiphysin II, SH3 domain; cloned into the SalI and BglII sites of pYEX (modified pGEX-2TK); also called AmphIISH3; GST-Amphiphysin II SH3; source: expressed in bacteria; on glutathione-Sepharose 4B beads (pull-down) or purified (peptide arrays)
T1 sequence (looked up): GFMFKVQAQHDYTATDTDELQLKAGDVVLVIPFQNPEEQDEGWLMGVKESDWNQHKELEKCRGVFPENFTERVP
Briefly: pull-down; GST or GST fusion proteins (100 μg) adsorbed to glutathione-sepharose 4B beads, two hours at 4°C with 1 mg of HEK293 cellular extract in JS lysis buffer (50 mM Hepes, 150 mM NaCl, 1% Triton-X100); washed three times in ice-cold PBS; Western blot. For orientation: Immunoblotting shows a protein as a band on a membrane.

Test [2] addresses GST-SH3 carboxy-terminal of Grb2. The test is described as above.
A further test has as its target 14-3-3 sigma (UniProt P31947). Put plainly: SPOT peptide array, GST-14-3-3 sigma overlay.
In test [3] the target is POB1 fifteenmer peptide 338-352 with Pro343 replaced by alanine (human). Briefly: peptide or protein array; SPOT peptides on a cellulose membrane; GST fusion proteins (10 micrograms/ml) in PBS/BSA 5%; anti-GST antibody, peroxidase labeled secondary antibody, chemiluminescence in arbitrary units.
The target in test [4] is POB1 fifteenmer peptide 338-352 with Pro345 replaced by alanine (human). The test is described as above.
Test [5] deals with POB1 phospho-peptide 347KTHSRASpSLDLNKVF361 (human). The test is described as above.
In test [6] the target is T1, GST-SH3 of Amphiphysin II. The description is as above. The note with it: both partners purified.
Test [7] deals with POB1 fifteenmer peptide 338-352 with proline 339 replaced by alanine (human). The test is described as above.

As to “Myc-tagged POB1 (full length) (natural protein)”, the results for the percent of the input bound in test [1] and in test [2] were 25% and 4%, respectively.

Consider “POB1/REPS2 347-361 (from UniProt Q8NFH8) pS354 peptide”, for which the “other: spot intensity” value in the test with 14-3-3 sigma (reference: unphosphorylated peptide (No. 238), sites S354) was “gained; reference 991”.

Take “POB1/REPS2 15-mer centred on Ser322 (from UniProt Q8NFH8) pS322 peptide (No. 196)”: the “other: spot intensity” value with 14-3-3 sigma (reference: unphosphorylated peptide (No. 232), sites S322) is “none in both; reference 1400”.

Turning to “GST-SH3 carboxy-terminal of Grb2 (domain or fragment)”, the percent of the binding to the unmutated peptide in test [3] and in test [4] was 30% throughout.

With “GST-14-3-3 sigma (from UniProt P31947 1-248) (natural protein)”, in test [5], the signal intensity (arbitrary units (a.u.)) is 8500.

B1: POB1 fifteenmer peptide 338PPTPPPRPQKTHSRA352 (peptide)
peptide: PPTPPPRPQKTHSRA
notes: numbers count on: isoform 2, Q8NFH8-2; source: SPOT synthesis on a cellulose membrane
Turning to B1, the binding result in test [6] is on record as “binds”.

B2: GST-SH3 of Amphiphysin II (domain or fragment)
chain: GFMFKVQAQHDYTATDTDELQLKAGDVVLVIPFQNPEEQDEGWLMGVKESDWNQHKELEKCRGVFPENFTERVP
B2 registered a percent of the binding to the unmutated peptide in test [7] of 31%.

(Values after PMC2494995, “The central proline rich region of POB1/REPS2 plays a regulatory role in epidermal growth factor receptor endocytosis by binding to 14-3-3 and SH3 domain-containing proteins” (BMC Biochemistry, 2008).)
